Tests used:
[1] = target: human SRC SH2 domain (Gln147-Lys252) C188A (human) (UniProt P12931); assay: ITC; peptide (400 uM) titrated into SRC SH2 (40 uM) in the cell, 25 C, MicroCal PEAQ-ITC Automated; SH2 domain pretreated with 0.1 mM PV (oxidised)
[2] = target: human SRC SH2 domain (Gln147-Lys252) C188A (human) (UniProt P12931); assay: ITC; peptide (400 uM) titrated into SRC SH2 (40 uM) in the cell, 25 C, MicroCal PEAQ-ITC Automated; SH2 domain pretreated with 1 mM TCEP (reducing conditions)

fold lower affinity against reducing conditions [1]: 3.5 fold | fold increase in affinity against SH2 WT [2]: 5 fold
Substance: SRC C-terminal phosphopeptide (spanning pY530)
